# Test results: the supplement of paper PMC12042874
# ± gives the uncertainty stated by the source.
# Test: amyloid nucleation score (Sup35N fusion, yeast selection) (log enrichment); library NNK1; higher = more nucleation; inactive = no reads after selection
# Outline: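 Peptides of 20 random codons, each fused to Sup35N, were expressed in psi-negative yeast. Cells were induced with 100 μM copper sulfate for 24 hours and grown 7 days at 30°C on medium lacking adenine and uracil, and plasmid inserts before and after selection were Illumina-sequenced. Nucleation scores are DiMSum log enrichments of output over input reads, centred on the mode score of non-aggregating sequences, and sequences under 100 input reads were excluded.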
row,Substance,amyloid nucleation score
1,RYLSHHP,0.609 ± 0.55
2,RYLVALFSMYKWYGVEKDWK,0.954 ± 0.54
3,RYMLFVFHSLTGYYIRRFVY,-1.22 ± 1
4,RYRCSKVRRAMSKLTYVGMA,4.18 ± 0.07
5,RYRDYSRRIDCLCYVSVPVY,0.564 ± 0.4
6,RYSQTKDLKVLLQHFFIYKF,-1.23 ± 1.7
7,RYSSLRWTISFDNLVVSFRP,0.724 ± 0.68
8,RYSWSYEKKWIDNLQLVLR,-0.609 ± 0.22
9,RYTLILH,-0.355 ± 0.75
10,SAAYQALLTNSYFSLFDVSW,0.823 ± 0.21
11,SACFMMGLDDWCDSR,-0.529 ± 0.35
12,SACNYVRRNVAHVRLLSL,0.564 ± 0.53
13,SAGVTPLEMKSDRIREDAAG,0.629 ± 1
14,SARRTPCTVIL,0.362 ± 1.4
15,SAVLFIEFCVLIVVMFSIMM,-0.241 ± 1.2
16,SAYPCCLSEDYVSSSGVSNK,0.74 ± 0.48
17,SAYSKILSLPVRMGVWVAHI,0.658 ± 0.42
18,SCDVTILGYLAMMKLDVMWV,-0.074 ± 0.34
19,SCGLINWLRVYHLLSLNSGS,2.31 ± 0.1
20,SCHVTFKVFFLFAGPCREVL,1.98 ± 0.27
21,SCKRSA,0.578 ± 0.4
22,SCKVVILLPSVVKACLTVLP,0.474 ± 0.95
23,SCMMYQMCNWHERAPSTVLL,0.908 ± 0.58
24,SCNCHWY,1.49 ± 0.74
25,SCNHKNSRSHLALQS,1.6 ± 0.44

row,Substance,amyloid nucleation score
1,SCPRVTIFCCSGILGREWGK,7.189 ± 0.045
2,SCRRYSYKCSVL,-0.16 ± 1.4
3,SCSVSNGVFCNHGRGCGFRL,2.12 ± 0.18
4,SCSVYTGYSYGLRYNFDLVS,-1.81 ± 2.4
5,SCTGCLFDTELRWISWVGLF,0.074 ± 0.39
6,SDCRKAFIMSHRSDGNLEFV,0.382 ± 1.4
7,SDDHVTVYNRDARRSRSCCL,inactive
8,SDFLTWCDQSLRCVDRYPNA,0.648 ± 0.97
9,SDGRNHTANYPWG,-0.182 ± 0.65
10,SDRGSKPMSVYNLRC,0.305 ± 0.75
11,SDRPMRFNFSNNAYDSHLYL,0.511 ± 0.67
12,SDSLFPTPLDFKMKIWGIMV,0.062 ± 0.85
13,SDTLCPSADWVRRSARCQVD,0.8 ± 0.74
14,SDTRYGLFVNWRFWDRGSGW,0.238 ± 0.34
15,SDTVWFPYKLITSLHQSAKW,1.41 ± 0.14
16,SDVKF,2.95 ± 0.11
17,SDYFYSGKGFFLAMGLSMSR,-1.5 ± 1.8
18,SECYFSVWFANTALQNRV,0.034 ± 0.4
19,SEEYWVLDWIEVGLKGSLRM,-0.105 ± 0.55
20,SEFASLERSHSHLYMWEFSL,0.171 ± 0.63
21,SERDRLSLMRRVAM,-0.153 ± 1.4
22,SETFEHRLRD,-0.437 ± 0.28
23,SETLTMFRYCISIRDKGPQG,1.24 ± 0.37
24,SEYAVNSGSITFFIHAVWCW,0.349 ± 0.26
25,SFAVHVGVANSSGSCLMLGG,0.277 ± 0.3

row,Substance,amyloid nucleation score
1,SFCLFNVIYQFIGKRCPNSG,3.82 ± 0.1
2,SFEDGGLMFMAPDIRGTGTR,0.884 ± 0.79
3,SFESVFRHCRVRCCYGKIRQ,0.685 ± 0.31
4,SFEWSSFTYFSNFWWLEPNT,0.738 ± 0.65
5,SFFWDT,-0.524 ± 0.51
6,SFHLSQFYKNTHMWLIVFES,inactive
7,SFIELMMASRLF,0.367 ± 0.35
8,SFKGYVSWVGSPHRAVG,0.425 ± 0.86
9,SFPVQQIYF,0.971 ± 0.49
10,SFRACFGPWLFIALIPKNTV,-1.1 ± 0.61
11,SFRCMEYSWGDWVINPPYLS,0.234 ± 0.62
12,SFSFKCDYYVPCRRYIFVIL,-1.3 ± 1.1
13,SFSKYAGFARKWSMLRVASY,-0.337 ± 1.2
14,SFSLSLVFRISPDGLGHFLQ,0.412 ± 0.3
15,SFSNVRNI,-1.52 ± 0.81
16,SFTVVGLKLTIVRDNNS,3.86 ± 0.12
17,SFVCCFRLPWMGGTKNPMHV,3.55 ± 0.19
18,SFVNTNHRMRRCYTTENNPS,-0.796 ± 0.68
19,SFVVTAEPSRAMNYSCFWKR,inactive
20,SFYLFCPNCGRWTVFGEYS,-1 ± 0.31
21,SFYYIWRGLVTSED,-0.779 ± 0.8
22,SGAVIYANKFYVISCHNWSY,7.478 ± 0.057
23,SGDCVL,1.43 ± 0.26
24,SGGLNFLGLPVVFF,0.173 ± 0.92
25,SGGPGDAGRLRQ,-0.005 ± 0.91

row,Substance,amyloid nucleation score
1,SGHGFLRQ,inactive
2,SGHTVVMVMNMCCVSFHLRC,6.562 ± 0.048
3,SGIPSVLATGYSYKF,-0.273 ± 0.29
4,SGIYGCSGRQDIKSKNYGSR,1.12 ± 0.56
5,SGMVLNNQSS,-0.763 ± 0.79
6,SGNMNSLYWKSQKCNSYSFP,0.935 ± 1.1
7,SGRWLYVLVPICMPYVAELS,inactive
8,SGSDVILAYTPTPPGDSPVW,0.645 ± 0.61
9,SGSLGS,0.386 ± 0.84
10,SGTQKNRCTSLMQC,0.709 ± 0.53
11,SGTRFLFEPSELINPYNHRC,1.15 ± 0.68
12,SGTSLPNITLLDTFCTRCFV,-0.095 ± 0.22
13,SGWIRLL,0.66 ± 0.36
14,SGYSRGKEEQKHQFA,0.137 ± 0.6
15,SHAFRITS,0.619 ± 0.85
16,SHCCR,inactive
17,SHDFVVIISNCR,5.57 ± 0.093
18,SHFFLIT,-0.48 ± 1.5
19,SHFVLMLFENSIIVCLEDWE,1.91 ± 0.57
20,SHKGNPCRKIC,-0.392 ± 0.38
21,SHLLGINCCCA,0.131 ± 0.85
22,SHPFTFSCAHILLWMSLRRF,0.276 ± 0.45
23,SHPTNFSCIVVSARQGVKKI,-0.148 ± 0.79
24,SHTADFRVLLRLIQYERGLR,3.44 ± 0.18
25,SHTLHDAIYGVDVQPFDTRV,0.102 ± 0.66

row,Substance,amyloid nucleation score
1,SHVPEVGVGSDAVFLANKGI,-0.855 ± 0.69
2,SIAFYFFKPLYVLVPNMFGY,6.15 ± 0.073
3,SICTCKWYVSVWWAIWRINN,1.59 ± 0.42
4,SIDWRAEMNSLSM,-0.109 ± 0.24
5,SIEGRSSIQATMCSMLLNGP,-0.197 ± 0.39
6,SIFLCVSLSVTCETILAGLD,2.8 ± 0.16
7,SIGWYTQGRYVGMCHRN,0.251 ± 0.53
8,SIIIGMRLCHHVRSAYTNEL,3.21 ± 0.18
9,SINVVLAINGTAHCNFSASL,4.66 ± 0.067
10,SIPLCTLESQSEKVTWISDQ,0.325 ± 0.78
11,SIRTLQDNSTSSENFKVESV,0.273 ± 0.64
12,SITLS,-0.926 ± 1.8
13,SIVGLNQ,0.742 ± 0.43
14,SIVRTDDIARLSLMLGRRSV,-0.724 ± 0.56
15,SIYRHDA,-0.053 ± 1.1
16,SIYRYLCGRFDCLWILPCEH,1.29 ± 0.84
17,SKCCDSSRARVASSYS,0.261 ± 0.36
18,SKETAFGLSL,-0.368 ± 0.54
19,SKKSMYFLVRNWSQNLTRAG,2.21 ± 0.63
20,SKLCVCGTASLLHYTVTERV,5.29 ± 0.11
21,SKLYLIEVFLYA,-0.468 ± 0.66
22,SKMDGVATRYRYNAMRADVK,0.181 ± 0.2
23,SKQGRCLTFYQYVSLIISSM,-0.022 ± 0.18
24,SKSRLL,0.006 ± 0.4
25,SKSTYSLIGLGTFISRFNGN,1.03 ± 0.36

row,Substance,amyloid nucleation score
1,SKTRVLM,-0.374 ± 0.41
2,SKTSKWYPTDKLNTGALFLK,-0.321 ± 0.34
3,SKVCE,0.085 ± 0.66
4,SKYIGVVSPTWLH,0.428 ± 1.2
5,SLCFYGEQIFHN,2.24 ± 0.17
6,SLFAQKS,-0.273 ± 0.32
7,SLFQGERIPFGWNEGQTKDV,-0.469 ± 1.2
8,SLGCYCRVKIVWVCILGYTA,0.526 ± 0.27
9,SLGGVGRTTHNILCEADSGA,1.44 ± 0.38
10,SLGKLYAGDGVCMGTLPDSK,0.017 ± 0.56
11,SLIFCSYSNDLFHSWNHKFR,-0.068 ± 0.7
12,SLIGYVIKW,-0.095 ± 0.63
13,SLKGFADSVSGSVGLKDKAV,0.502 ± 0.61
14,SLLCLCYV,7.599 ± 0.059
15,SLLCTIYRVCADPYMGQNMT,inactive
16,SLLDMIYVIDTTTKNCILSK,0.983 ± 0.35
17,SLLDSEGVRYLIMEL,0.102 ± 0.4
18,SLLDWCYINRHM,0.604 ± 0.44
19,SLLGPIGIIQTWIPTHLDLF,inactive
20,SLLRRA,0.575 ± 0.71
21,SLLTCILGFPSCPGASMMFQ,7.057 ± 0.067
22,SLNGMTYVSMIVRSD,1.41 ± 0.39
23,SLNSMVSLTWVRRDYTIWKR,0.001 ± 0.23
24,SLPAEYSRRPKWVGASTVDW,0.527 ± 0.55
25,SLPRPIMFSLVVIILYNFVR,-0.333 ± 0.47

row,Substance,amyloid nucleation score
1,SLRDACFGVNI,-0.091 ± 0.29
2,SLRLARNGYIYAICRFLCYS,-1.15 ± 2.7
3,SLRYSLCRL,0.328 ± 0.24
4,SLSQFSKPGYICVNMVCSQA,1.36 ± 0.48
5,SLSQG,0.441 ± 0.93
6,SLTCWG,0.436 ± 0.33
7,SLTFVPTLFTCMDLMHC,7.415 ± 0.067
8,SLVASNSQL,0.06 ± 0.45
9,SLVDGSHNNFRGWVPIVVQG,-0.079 ± 0.99
10,SLVNFVAMGARDRIPCVYKR,-1.03 ± 2.4
11,SLVRMLRHLRMDEKFLLIRY,0.268 ± 0.53
12,SLVWVCFWGICI,6.67 ± 0.088
13,SLYLGNSGSDLGD,0.2 ± 1.1
14,SLYRIFRKASFESCGLEWFA,0.191 ± 0.66
15,SMAFGCWSVGWYRGMMSVCQ,1.16 ± 0.6
16,SMFCARLDTRVSRTGFPDRG,-0.557 ± 0.61
17,SMFLLRPYRVCFCSRRFVTV,0.253 ± 0.77
18,SMLAFQMITKQRQHSFWMWT,-0.766 ± 0.39
19,SMLALGFPSVNCQWTGATFS,1.22 ± 0.97
20,SMSFRCLDAKDVPDRASQGY,-0.385 ± 0.39
21,SMSPWDFNICCMNVCTTLLT,2.77 ± 0.25
22,SMSSSWG,0.19 ± 0.56
23,SMVAPRPANVRVRLVGRGST,0.354 ± 0.51
